From article PMC11148769 (Cell Reports Medicine, 2024)

Target: T1, BA.2.12.1 S trimer (SARS-CoV-2, Omicron BA.2.12.1, strain)
T1 construct: also called BA.2.12.1 spike
Experiment: cryo-EM structure
Conditions: both partners purified

B1: XBB-4 Fab (Fab, V domains shown)
VH: EVQLVQSGGGLVKPGGSLRLSCAASGFSFTNAWMNWVRQAPGKGLEWVGRIKSKADGGTTDYAAPVKGKFTISRDDSKNTLYLQMNSLKTEDTAIYYCTSDVYDFSTGFGQRDDFDYWGQGTLVTVSS
VL: DIVMTQSPSSLSASVGDRVTITCRASQSISYFLNWYQQKPGKAPKLLISAASSLQSGVPSRFSGSGSGTDFTLTISSLQPEDFATYYCQQSYSSLITFGGGTKVEIK
  stoichiometry N: 3 Fabs per S trimer
